According to the nanobody polyreactivity screen of Harvey et al. (2022):

Assay: yeast display, Sf9 membrane polyspecificity reagent, FACS + sequencing; frameworks hold sequencing errors
Outline: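 Synthetic nanobody libraries on Saccharomyces cerevisiae BJ5465 were galactose-induced for 36–48 hours, stained 1 hour at 4 °C with 10% biotinylated, detergent-solubilized Sf9 membrane reagent and enriched on streptavidin microbeads. FACS then separated cells into low and high (top ~1%) gates by anti-HA (expression) and streptavidin (reagent binding) fluorescence. Genes were colony-PCR amplified, MiSeq 2 × 250 sequenced and CDR-length filtered. A clone's polyreactivity label is that of its gate of origin.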

Q: With “QVQLVESGGGLVQAGGSLRLSCAASGRTFSFYAMGWYRQAPGKERELVAAISRGGTTNYADSVKGRFTISRDNAKNTVYLQMNSLKPEDTAVYYCAASYFRRGFYSIYEYDYWGQGTQVTVSS” as the sequence, how does the “polyreactivity (PSR sort gate)” value read?
A: The value was “low polyreactivity”.

Q: For “QVQLVESGGGLVQAGGSLRLSCAASGRTFSANAMGWYRQAPGKERELVAAISSGGSTTYADSVKGRFTISRDNAKNTVYLQMNSLKPEDTAVYYCAAVWLSLFKGWVDTHEYDYWGQGTQVTVSS”, which “polyreactivity (PSR sort gate)” value is on record?
A: The value was “low polyreactivity”.

Q: Which “polyreactivity (PSR sort gate)” value does the source give for “QVQLVESGGGLVQAGGSLRLSCAASGNNFSYNAMGWYRQAPGKERELVAAITTSSGRTYYADSVKGRFTISRDNAKNTVYLQMNSLKPEDTAVYFCNAVQRYQIGYWGQGTQVTVSS” here?
A: The value was “high polyreactivity”.

Q: With “QVQLVESGGGLVQAVGSLRLSCADSGLPFYRNAMGWYRQARGKVRELVAAISLRGGSTYYADSVKGRFTISRDHAKNPVYLQMNSLKPEDTAVYYCAARRWWLNLDYWGQGTQVTVSS” as the sequence, how does the “polyreactivity (PSR sort gate)” value read?
A: Its value is “high polyreactivity”.

Q: With “QVQLVESGGGLVQAGGSLRLSCAASGRTFRRYTMGWYTQAPGKVRELVAAITTSGGSTYYADSVKGRFTISRDNAKHTVYLQMNSLKPEDTAVYYCAATRRYSGDFWGQGTQVTVSS” as the sequence, how does the “polyreactivity (PSR sort gate)” value read?
A: Its value is “high polyreactivity”.

Q: With “QVQLVESVGGLVQAGGSLRLSCSASGSIFDYYAMGWYRQAPGKQRELVAAITSGGSTYYADSVKGRFTISRDNAKNTVYLQMNSLNPEDTAVYYCNATYYYWLSYDYWGQGTQVSVSS” as the sequence, how does the “polyreactivity (PSR sort gate)” value read?
A: Its value is “low polyreactivity”.

Q: Which “polyreactivity (PSR sort gate)” value does the source give for “QVQLVESGARIVQAGGSLRLSCAAYGSTFGRYGMGWYRQAPGKERELVAAISRAGGTNYADSVKGRITISRDNAKNTVYLQMNSLKPEDTAVYYCNARWYYVLYDYWGQGTQVTVSS” here?
A: The value was “low polyreactivity”.

Q: Which “polyreactivity (PSR sort gate)” value does the source give for “QVQLVESGGGLVQAGGSLRLSCAASGIFSRYAMGWYRQAPGKERELVAAISSGGSTYYADSVKGRFTISRDNAKNTVYLQMNSLKPEDTAVYYCAVKQRDKFAGGRNDYWGQGTQVTVSS” here?
A: Its value is “high polyreactivity”.

Q: With “QVQHVESGGGLVQAGGSLRLSCAASGRTFVYYVMGWYRQAPGKESELVAAITGSGDSTYYADSVKGRFTISRDNAKNNVYLQMNSLKPEDTAVYYCAARRGTRYYDFGYYYWGQGTKVTVSS” as the sequence, how does the “polyreactivity (PSR sort gate)” value read?
A: The value was “high polyreactivity”.

Q: With “QVQLVESGGGLVQAGGSLRLSCAASGFIFVVYAMGWYRQAPGTERELVATISSGGGTYYADSVKGRFTISRDNAKITVYLQMNSLKPEDTAVYYCAARRRRLYHFGGNNYWGQGTLVTVSS” as the sequence, how does the “polyreactivity (PSR sort gate)” value read?
A: The value was “high polyreactivity”.

Q: With “QVQLVESGGGLVQAGGSLRLSCAASGSIFHIYAMGWYRQAPGKERELVAAMTYADSVKGRFTISRDNAKNTVYLQMNSLKPEDTAVYYCNADNWPRIHGSAYDYWGQGTQVTVSS” as the sequence, how does the “polyreactivity (PSR sort gate)” value read?
A: Its value is “low polyreactivity”.

Q: Which “polyreactivity (PSR sort gate)” value does the source give for “QVQLVESGGGLVQAGGSLRLSCAASGSIFAVNTMGWYIQAPGKERELVAAISQRGSSTYYADSVKGRFTISRDNAKNTVYLQMNSLKPEDTAVYYCAKRFIYGRYNYWGQGTQVTVSS” here?
A: Its value is “high polyreactivity”.

Q: With “QVQLVESGGGLVQAGGSLRLSCAASGRIFDYNAMGWYRQAPGKERELVAAINSGGSTYADSVKGRFTISRDNAKNTVYLQMNSLNPEDTAVYYCAKSLGQTDWEYDSWGQGTQVTVSS” as the sequence, how does the “polyreactivity (PSR sort gate)” value read?
A: Its value is “low polyreactivity”.

Q: Which “polyreactivity (PSR sort gate)” value does the source give for “QVQLVESGGGLAQAGGSLRLSCAASGSTFLYYAMGWYRQAPGKERELVDAIDSGGSTYYADSVKGRFTISRDNAKNTVYLQMNSLKPEDTAVYYCNADFADHWPPNGPGAHDYWGQGTQVTVSS” here?
A: The value was “low polyreactivity”.

Q: For “QVQLVESGGGLVQAGGSLRLTCAASGRTFNIYAMGWYRQAPGKERELVAAITSGGSTNYADSVKGRFTISRDNAKNTVYLQMNSLKPEDTAVYYCNARYFRGYDYWGQGTQVTVSS”, which “polyreactivity (PSR sort gate)” value is on record?
A: The value was “high polyreactivity”.

Q: Which “polyreactivity (PSR sort gate)” value does the source give for “QVQLVESGGGLVQARGSLRLSCAASGSTFSYYTMGWYRQAPGKERELVATISRRGASTYYADSVKGRFTISRDNAKNTVYLQMHSLKPEDTAVYYCAKSYYYGRSATRPEYDYWGQGTQVTVSS” here?
A: The value was “high polyreactivity”.

Q: For “QVQLVESGGVLVQAGGSLRLSCAASGSTFEDYTMGWYRQAPRKVRELVAISTRGGTYYADSVKGRFTSSRDNPKNTVYLQRNSLKPEDTAVYYCNKRFGYYSWDQYSRDYWGQGTQVTVSS”, which “polyreactivity (PSR sort gate)” value is on record?
A: The value was “low polyreactivity”.

Q: For “QVQLVESGGGLVQAGGSLRLSCAASGRTFGRYAKGWYRQAPGKERELVATITSGGSTNYADSVKGRFTISRDNAKNTVYLQMNSLKPEDTAVYYCAAEFSPSRWAYSEGALRYNYWGQGTQVTVSS”, which “polyreactivity (PSR sort gate)” value is on record?
A: The value was “low polyreactivity”.

Q: With “QVQLVESGGGLVQAGGSLRLSCAASGFIFSTYAMGWYRQAPGKERELVAAITTSGSSTYYADSVKGRFTISRDNAKNTVYLQMNSLKPEDTAVYYCNAKYGYSAATDRGNYWGQGTQVTVSS” as the sequence, how does the “polyreactivity (PSR sort gate)” value read?
A: The value was “high polyreactivity”.

Q: For “QVQLVESGGGLVQAGGSLRLSCAASGRTFDEYAMVWYRQAPGKERELVAAINSSGNTYYADSVKGRFTISRDNAKNTVYLQMNSLKPEDTAVYYCAVRSYNTISDDMDYWGQGTQVTVSS”, which “polyreactivity (PSR sort gate)” value is on record?
A: The value was “low polyreactivity”.

Q: With “QVQLVESWGGLVQAGGSLRLSCAASGRIFGYYAMGWSRQAPGKERELVAVISSGGSTYADSVKGRFTISRDNAKNTVYLQMNSLKPEDTAFYYCAARNYWSSYRTYRSRYDYWGQGTQVTVSS” as the sequence, how does the “polyreactivity (PSR sort gate)” value read?
A: The value was “high polyreactivity”.

Q: For “QVQLVESGGGLVQAGGSLRLSCAASGSIFGWYAMGWYRQAPGKEREFVAAISGGSTYYADSVKGRFTISRDNAKNTVYLQMNSLKPEDTAVYYCNAQGYYFYPFDYWGQGTQVTVSS”, which “polyreactivity (PSR sort gate)” value is on record?
A: Its value is “high polyreactivity”.

Q: Which “polyreactivity (PSR sort gate)” value does the source give for “QVQLVEAGGGLVQAGGSLRLSCAASGLTFTVYAMGWYRQAPGKERELVAAITGSGTSTYYADSVKGRFTISRDNAKNTVYLQMNSLKPEDTAVYDCAADLYYYGFFWDFGDGFDYWGQGTQVTVSS” here?
A: Its value is “low polyreactivity”.

Q: With “QVQLVESGGGLVHAGGSLRLSCAASGYIIGYYTMGWYRQAPGKERELVATIRSGGSTYYADSVKGRFTISRDNANNSVYLQINSLKPEDTAVYYCAKRVRRISEYGYWGQGTHVTVSS” as the sequence, how does the “polyreactivity (PSR sort gate)” value read?
A: Its value is “high polyreactivity”.

Q: For “QDQLVESGGGLVQAGGSLRLSCAASGRIFTGNVMGWYRQAPGKERELVAAITYRGGSTYYADSVKGRFTISRDNAKNTVFLQMNSLKPEDTAVYYCNTGWDPYGYDYWGQGTQVTVSS”, which “polyreactivity (PSR sort gate)” value is on record?
A: The value was “low polyreactivity”.

Q: For “QVQLVESGGGLVQAGGSLRLSCAASGRTFVYNAMGWYRQAPGKERELVAAITWNGGSTYYADSVKGRFTISRDNAKNTVYLQMNSLKPEDTAVYYCNRDVRYVGPSGFDYWGQGTQVTVSS”, which “polyreactivity (PSR sort gate)” value is on record?
A: Its value is “high polyreactivity”.

Q: With “QVQLVESGGGLVQAGGSLRLSCAASGSTLVSYAMGWYRQSPGKERELVATISWRGGSTYYADSVKGRFTISRDNAKNTVYLQMNSLKPEDTAVYYCAADLWHSQYYYGYEYWGQGTQVTVSS” as the sequence, how does the “polyreactivity (PSR sort gate)” value read?
A: The value was “low polyreactivity”.

Q: For “QVQLVESGGGLVQAGGSLRLSCAASGATFSVNAMGWYRQAPGKEREWVAAISSTGSTKYADSVKGRFTISRDNAKNPVYLQMNSLKPEDTAVYCAASNADYEYYPFSVWYFSPYDYWGHGTQVTVSS”, which “polyreactivity (PSR sort gate)” value is on record?
A: The value was “low polyreactivity”.

Q: For “QVQLVESGGGLVHAGGSLRLSCAASGGTFSLNAMGWYRKAPGTERELVAAISKRSSTTYYADSVKGRFTISRDNAKNTVYLQMNSLKPEDTSVYYCAARVLRSRKPGRGYDYWGQGTQVTVSS”, which “polyreactivity (PSR sort gate)” value is on record?
A: Its value is “high polyreactivity”.

Q: For “QVQLVESGGGLVQAGGSLRLSCAASGSIFLVTAMGWYRQAPGKERELVAAITFGGDSTYYADSVKGRFTISRDNAKNTVYLQMNSLKPEDTAVYYCAADPSPYGDEYDYWGQGTQVTVSS”, which “polyreactivity (PSR sort gate)” value is on record?
A: Its value is “low polyreactivity”.

Q: With “QVQLVESGGGLVQAGGSLRLSCAASAFIFSRNAMGWYRQAPGKDRELVAAISLRGGSTSYADSVKGRFTISRDTAKNTVYIQMNSLKPEDTAVYYCAKYDRNTYGYWGQGTEVTVSS” as the sequence, how does the “polyreactivity (PSR sort gate)” value read?
A: The value was “low polyreactivity”.

Q: For “QVQLVESGGGLVQAGGSLRLSCAASGSIFVTYAMGWYRQAPGKERELVAAINYSGGSTYYADSVKGRFTISRDNAKNTVYLQMNSVKPEDTAVYYCAATTRYYSYGYWGQGTQVTVSS”, which “polyreactivity (PSR sort gate)” value is on record?
A: Its value is “low polyreactivity”.

Q: For “QVQLVESGGGLVQAGGSLRLSCAASGSTFLFYAMGWYRQAPGKEREFVDAISWSGGSTFYADSVKGRFTISRYNAKNTVYLQMNSLKPEDTAVYYCAARQDGYSGRKLYYLGQGTQVTVSS”, which “polyreactivity (PSR sort gate)” value is on record?
A: Its value is “low polyreactivity”.

Q: With “QVQLVESGGGLVQAGGSLRLSCAASGRTFVYYAMGWYRQAPGNERELVASISSGAGSPNYADSVKGRYTISRDNAKNTGYVQMNSLKPEDTAVYYCAVDTPRYRYYRTSYDYWRQGTQVTVSS” as the sequence, how does the “polyreactivity (PSR sort gate)” value read?
A: Its value is “low polyreactivity”.

Q: With “QVQLVESGGGLVQAGGSLRLSCAASGFTFYYYMGCYRQAPGKERELVAAITSGDTTYYADSVKGRFTISRDNAKNTVYLQMNSLKPEDTAVYYCNVDQAIYRWVPWEMDYWGQGTQVTVSS” as the sequence, how does the “polyreactivity (PSR sort gate)” value read?
A: The value was “low polyreactivity”.

Q: For “QVQLVESGGCLDQAGGSLRLSCAASGFTLHSYAMGWYRQAPGKERELVAAITTGGSTYYADSVKGRLTISRDNAKNTVYLQMNSLKPEDTAVYYCAAEDPGPYGGYVYWGQGTQVTVSS”, which “polyreactivity (PSR sort gate)” value is on record?
A: Its value is “low polyreactivity”.

Q: Which “polyreactivity (PSR sort gate)” value does the source give for “LDQLVESGGGLVQAGGSLRLSCAASGSIFGPNAMGWNRKAPGKERELVAAISWSGASTYYADSVKGRFTITRDNEKNTVYLQMNSLKPEDTAVYYCAADYYGVSGSGYGYWGQGTQVTVSS” here?
A: Its value is “low polyreactivity”.

Q: For “QVQLLESGGGLVQAGGSLRLSCAASGSIFDGYGMGWYRQAPGKERELVAGITSGGSTYYADSVKGRFTISRDTAKNTVYLQMNSLKPEDTAVYYCATVVRYSNARGDYWGQGTQVTVSS”, which “polyreactivity (PSR sort gate)” value is on record?
A: The value was “low polyreactivity”.

Q: For “QDQLVESGGGLVQAGGSLRLSCAASGSTFNIYAMGWYRQAHGTVRELVARITSGGSTNYADSVKGRFTISRDNAKNTVYLQMKSLKPEDTAVYYCAARLKWGLPTYDYWGQGTQVTVSS”, which “polyreactivity (PSR sort gate)” value is on record?
A: The value was “high polyreactivity”.

Q: Which “polyreactivity (PSR sort gate)” value does the source give for “QVQLVESGGGLVQAGGSLRLSCAASGYTFQYYAMGWYRQAPGKERELVAAISRGVGSTTYYADSVKGRFTISRDNAKNTVYLQMNSLKPEDTAVYYCNHDFLGDEYDYWGQGTQVTVSS” here?
A: Its value is “high polyreactivity”.

Q: Which “polyreactivity (PSR sort gate)” value does the source give for “QVQLVESGGGLGQAGGSLRLSCAASGFTFWYYGRGWYRQAPGKERELVAAITSSGGRTSYADSVKGRFTISRDNAKNTVYLQMNSLKPEETADYYCAALYSYYSLYDDYDYWGQGTQVTVSS” here?
A: Its value is “high polyreactivity”.
